Source: patent US20210292390A1, “CHIMERIC ANTIGEN RECEPTORS” (Oxford University Innovation Limited, priority 2016, published 2021)

T1: SLP-76 (Homo sapiens, UniProt Q13094)
T1 construct: endogenous in cells; host or cells: Jurkat cells
T1 sequence (Q13094 1-533): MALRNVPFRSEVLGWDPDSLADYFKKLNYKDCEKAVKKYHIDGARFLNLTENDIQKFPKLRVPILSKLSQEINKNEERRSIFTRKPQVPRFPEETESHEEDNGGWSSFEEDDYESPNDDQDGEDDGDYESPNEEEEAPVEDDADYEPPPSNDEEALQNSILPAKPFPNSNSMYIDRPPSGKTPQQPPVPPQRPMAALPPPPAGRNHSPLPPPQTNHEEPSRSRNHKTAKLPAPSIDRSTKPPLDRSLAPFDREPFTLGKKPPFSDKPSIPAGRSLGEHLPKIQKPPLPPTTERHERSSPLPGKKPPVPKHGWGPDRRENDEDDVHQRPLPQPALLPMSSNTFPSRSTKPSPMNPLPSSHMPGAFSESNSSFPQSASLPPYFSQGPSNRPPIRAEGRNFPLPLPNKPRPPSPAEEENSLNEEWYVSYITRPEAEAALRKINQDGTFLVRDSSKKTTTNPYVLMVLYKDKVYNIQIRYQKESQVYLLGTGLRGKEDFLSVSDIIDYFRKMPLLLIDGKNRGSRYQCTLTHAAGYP

T2: GADS (Homo sapiens, UniProt O75791)
T2 construct: endogenous in cells; host or cells: Jurkat cells
T2 sequence (O75791 1-330): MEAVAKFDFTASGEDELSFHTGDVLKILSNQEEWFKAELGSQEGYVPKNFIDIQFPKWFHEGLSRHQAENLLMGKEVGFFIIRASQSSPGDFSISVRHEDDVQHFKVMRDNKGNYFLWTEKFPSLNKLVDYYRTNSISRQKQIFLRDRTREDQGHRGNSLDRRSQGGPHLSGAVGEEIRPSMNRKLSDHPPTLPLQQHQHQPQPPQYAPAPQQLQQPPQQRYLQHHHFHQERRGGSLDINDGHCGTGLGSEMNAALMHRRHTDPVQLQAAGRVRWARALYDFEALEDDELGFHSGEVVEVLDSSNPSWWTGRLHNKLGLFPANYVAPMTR


Assays:
[1] = biological target: biotinylated CD6 peptide pY629 Y662 (human); assay: SPR (BIAcore 3000), equilibrium binding, biotinylated peptide on streptavidin CM5 chip, 37° C.
[2] = biological target: biotinylated CD6 peptide pY629 pY662 (human); assay: as above
[3] = biological target: biotinylated CD6 peptide pY629 Y662 (human); assay: SPR (BIAcore 3000), equilibrium binding, biotinylated peptide on streptavidin CM5 chip, 15° C.
[4] = biological target: biotinylated CD6 peptide pY629 pY662 (human); assay: as above
2B4 Reay cells = assay: IL-2 secretion (ELISA) by hybridoma cells expressing chimeric receptors after CD6 crosslinking; format: cell-based, mouse
Source text: The activity of the exemplary chimeric receptor was compared with that of a comparator chimeric receptor lacking the CD6-derived signalling region. Both chimeric receptor molecules contained the extracellular and transmembrane regions of human CD6 and the cytoplasmic region of mouse CD3 zeta. The exemplary chimeric receptor further comprised residues 623 to 668 from the C terminus of human CD6.
Murine T hybridoma cells were transduced to express either the exemplary or comparator chimeric receptors. Cells were assessed for their response to human CD6 monoclonal antibody immobilised on 96 well tissue culture plates. After incubation for 18 h at 37° C., the supernatants were analysed for the presence of mouse IL-2 by ELISA.
The activity of a comparator chimeric receptor (consisting of the extracellular region of human CD6 and the mouse CD3 zeta tail, effectively a first generation CAR in the cytoplasmic region) was investigated alongside the exemplary chimeric receptor illustrative of CARs or cells of the invention. […] The cells were stimulated with different concentrations of plate-bound T12.1 monoclonal antibody (mAb), a CD6 crosslinking antibody, overnight and secreted mouse IL-2 was measured by ELISA.

SLP-76 = biological target: T1, SLP-76; assay: Co-immunoprecipitation with CD6 constructs in Jurkat cells, Western blot; format: binding; details: Jurkat cells treated with Na3VO4
Source text: (§1) In FIG. 2(A) Lysate of 8×10^5 Jurkat cells treated with the phosphatase inhibitor Na3VO4 or immunoprecipitation samples of 3×10^6 cells were loaded on gels and after electrophoretic separation they were blotted on nitrocellulose membranes. The membranes were probed with the indicated antibodies and visualised using LI-COR western blotting. FIG. 2(B) illustrates Western Blot bands of three independent CD6 co-immunoprecipitations were quantified using the software ImageJ. Each co-immunoprecipitation value is divided by the intensity of the band in the lysate to compensate for differences in cell numbers used and is normalised to the intensity of EGFP in the co-immunoprecipitation divided by the intensity of EGFP in the lysate to compensate for different expression levels of the constructs. Samples were analysed using the unpaired Student t test comparing values of mutants to the VVT. n=3, error bars show the standard error of the mean, * p<0.05, ** p<0.01, ns=not significant.

GADS = biological target: T2, GADS; assay: as above; format: binding; details: Jurkat cells treated with Na3VO4
Source text: as §1

[5] = biological target: biotinylated CD6 peptide Y629 pY662 (human); assay: SPR (BIAcore 3000), equilibrium binding, biotinylated peptide on streptavidin CM5 chip, 37° C.
[6] = biological target: biotinylated CD6 peptide Y629 pY662 (human); assay: SPR (BIAcore 3000), equilibrium binding, biotinylated peptide on streptavidin CM5 chip, 15° C.
CD4+ T cells = assay: Primary T cell activation by CD69 expression after CD3 and CD6 antibody stimulation; format: cell-based; details: CD3 antibodies and 5 μg/ml CD6 antibodies; three donors; versus untransduced cells
Experimental: CD4+ T cells were stimulated with CD3 antibodies and 5 μg/ml CD6 antibodies to crosslink transduced CD6.

primary T cells = assay: Intracellular IL-2 in primary T cells after antibody stimulation; format: cell-based

Molecule | Kd [2] [µM] | Kd [4] [µM] | co-immunoprecipitation of SLP-76 (SLP-76) | co-immunoprecipitation of GADS (GADS) | also measured
chimeric receptor of SEQ ID NO.4: human CD6 extracellular and transmembrane regions, mouse CD3 zeta cytoplasmic region, plus human CD6 C terminus (protein) MWLFFGITGLLTAALSGHPSPAPPDQLNTSSAESELWEPGERLPVRLTNGSSSCSGTVEVRLEASWEPACGALWDSRAAEAVCRALGCGGAEAASQLAPPTPELPPPPAAGNTSVAANATLAGAPALLCSGAEWRLCEVVEHACRSDGRRARVTCAENRALRLVDGGGACAGRVEMLEHGEWGSVCDDTWDLEDAHVVCRQLGCGWAVQALPGLHFTPGRGPIHRDQVNCSGAEAYLWDCPGLPGQHYCGHKEDAGAVCSEHQSWRLTGGADRCEGQVEVHFRGVWNTVCDSEWYPSEAKVLCQSLGCGTAVERPKGLPHSLSGRMYYSCNGEELTLSNCSWRFNNSNLCSQSLAARVLCSASRSLHNLSTPEVPASVQTVTIESSVTVKIENKESRELMLLIPSIVLGILLLGSLIFIAFILRAKFSRSAETAANLQDPNQLYNELNLGRREEYDVLEKKRARDPEMGGKQQRRRNPQEGVYNALQKDKMAEAYSEIGTKGERRRGKGHDGLYQGLSTATKDTYDALHMQTLAPRTSSGEWYQNFQPPPQPPSEEQFGCPGSPSPQPDSTDNDDYDDISAA | – | – | – | – | increase of IL-2 production as compared to a control receptor lacking the CD6-derived signalling region (2B4 Reay cells): at least 2.5 fold
CD6 Y629F: mutant form of CD6 with tyrosine Y629 substituted (protein, left off: large carriers; small tags and cut ends, mutant form of CD6 with tyrosine Y629 substituted) DQLNTSSAESELWEPGERLPVRLTNGSSSCSGTVEVRLEASWEPACGALWDSRAAEAVCRALGCGGAEAASQLAPPTPELPPPPAAGNTSVAANATLAGAPALLCSGAEWRLCEVVEHACRSDGRRARVTCAENRALRLVDGGGACAGRVEMLEHGEWGSVCDDTWDLEDAHVVCRQLGCGWAVQALPGLHFTPGRGPIHRDQVNCSGAEAYLWDCPGLPGQHYCGHKEDAGAVCSEHQSWRLTGGADRCEGQVEVHFRGVWNTVCDSEWYPSEAKVLCQSLGCGTAVERPKGLPHSLSGRMYYSCNGEELTLSNCSWRFNNSNLCSQSLAARVLCSASRSLHNLSTPEVPASVQTVTIESSVTVKIENKESRELMLLIPSIVLGILLLGSLIFIAFILLRIKGKYALPVMVNHQHLPTTIPAGSNSYQPVPITIPKEVFMLPIQVQAPPPEDSDSGSDSDYEHYDFSAQPPVALTTFYNSQRHRVTDEEVQQSRFQMPPLEEGLEELHASHIPTANPGHCITDPPSLGPQYHPRSNSESSTSSGEDYCNSPKSKLPPWNPQVFSSERSSFLEQPPNLELAGTQPAFSAGPPADDSSSTSSGEWFQNFQPPPQPPSEEQFGCPGSPSPQPDSTDNDDYDDISAA | – | – | strongly reduced | strongly reduced | –
CD6 Y629F Y662F: mutant form of CD6 with both tyrosine residues Y629 and Y662 substituted (protein, UniProt P30203 1-668, looked up, variant Y629F Y662F) MWLFFGITGLLTAALSGHPSPAPPDQLNTSSAESELWEPGERLPVRLTNGSSSCSGTVEVRLEASWEPACGALWDSRAAEAVCRALGCGGAEAASQLAPPTPELPPPPAAGNTSVAANATLAGAPALLCSGAEWRLCEVVEHACRSDGRRARVTCAENRALRLVDGGGACAGRVEMLEHGEWGSVCDDTWDLEDAHVVCRQLGCGWAVQALPGLHFTPGRGPIHRDQVNCSGAEAYLWDCPGLPGQHYCGHKEDAGAVCSEHQSWRLTGGADRCEGQVEVHFRGVWNTVCDSEWYPSEAKVLCQSLGCGTAVERPKGLPHSLSGRMYYSCNGEELTLSNCSWRFNNSNLCSQSLAARVLCSASRSLHNLSTPEVPASVQTVTIESSVTVKIENKESRELMLLIPSIVLGILLLGSLIFIAFILLRIKGKYALPVMVNHQHLPTTIPAGSNSYQPVPITIPKEVFMLPIQVQAPPPEDSDSGSDSDYEHYDFSAQPPVALTTFYNSQRHRVTDEEVQQSRFQMPPLEEGLEELHASHIPTANPGHCITDPPSLGPQYHPRSNSESSTSSGEDYCNSPKSKLPPWNPQVFSSERSSFLEQPPNLELAGTQPAFSAGPPADDSSSTSSGEWFQNFQPPPQPPSEEQFGCPGSPSPQPDSTDNDDFDDISAA | – | – | almost no SLP-76 and GADS was detected | almost no SLP-76 and GADS was detected | percentage of CD69 positive cells (CD4+ T cells): no significant difference; percentage of IL-2 positive cells (primary T cells; CD3 antibodies but not CD6 antibodies): did not show a significantly increased level of T cell activation; percentage of IL-2 positive cells (primary T cells; both CD3 antibodies and CD6 antibodies, three donors): did not show a significantly increased percentage of IL-2 positive cells

Now from value to molecule, other results behind:

Kd [2] [µM] | Kd [4] [µM] | co-immunoprecipitation of SLP-76 (SLP-76) | co-immunoprecipitation of GADS (GADS) | Molecule | also measured
0.77 to 1.58 | 0.14 to 2.05 | – | – | recombinant GADS SH2 domain (his-tagged) (protein, UniProt O75791 58-149, looked up) WFHEGLSRHQAENLLMGKEVGFFIIRASQSSPGDFSISVRHEDDVQHFKVMRDNKGNYFLWTEKFPSLNKLVDYYRTNSISRQKQIFLRDRT | Kd [1]: 0.6 to 0.88 µM; Kd [3]: 0.15 to 0.62 µM
– | – | strongly reduced | strongly reduced | CD6 Y662F: mutant form of CD6 with tyrosine Y662 substituted (protein, left off: large carriers; small tags and cut ends, mutant form of CD6 with tyrosine Y662 substituted) DQLNTSSAESELWEPGERLPVRLTNGSSSCSGTVEVRLEASWEPACGALWDSRAAEAVCRALGCGGAEAASQLAPPTPELPPPPAAGNTSVAANATLAGAPALLCSGAEWRLCEVVEHACRSDGRRARVTCAENRALRLVDGGGACAGRVEMLEHGEWGSVCDDTWDLEDAHVVCRQLGCGWAVQALPGLHFTPGRGPIHRDQVNCSGAEAYLWDCPGLPGQHYCGHKEDAGAVCSEHQSWRLTGGADRCEGQVEVHFRGVWNTVCDSEWYPSEAKVLCQSLGCGTAVERPKGLPHSLSGRMYYSCNGEELTLSNCSWRFNNSNLCSQSLAARVLCSASRSLHNLSTPEVPASVQTVTIESSVTVKIENKESRELMLLIPSIVLGILLLGSLIFIAFILLRIKGKYALPVMVNHQHLPTTIPAGSNSYQPVPITIPKEVFMLPIQVQAPPPEDSDSGSDSDYEHYDFSAQPPVALTTFYNSQRHRVTDEEVQQSRFQMPPLEEGLEELHASHIPTANPGHCITDPPSLGPQYHPRSNSESSTSSGEDYCNSPKSKLPPWNPQVFSSERSSFLEQPPNLELAGTQPAFSAGPPADDSSSTSSGEWYQNFQPPPQPPSEEQFGCPGSPSPQPDSTDNDDFDDISAA | –
0.62 to 2.82 | 0.26 to 1.82 | – | – | recombinant SLP-76 SH2 domain (his-tagged) (protein, UniProt Q13094 422-530, looked up) WYVSYITRPEAEAALRKINQDGTFLVRDSSKKTTTNPYVLMVLYKDKVYNIQIRYQKESQVYLLGTGLRGKEDFLSVSDIIDYFRKMPLLLIDGKNRGSRYQCTLTHAA | Kd [5]: 0.89 to 3.09 µM; Kd [6]: 0.31 to 1.87 µM
